B1: RBP5: artificial regeneration booster protein, SEQ ID NO: 36 (CDS SEQ ID NO: 24), construct pABM-BdEF1_RBP5 (protein)
chain: MVSKGEEVIKEFSGSTRWNPTAEQLSLLKELYYRNGIRTPSADQIRQISARLSRYGKIEGKNVFYWFQNHKARERQKKRLSTVGCGSAGSAAGSGEFRHVKTLPLFPLHNNVETLPLFPEDSGSLDLELELGFASATAAATSGSQRASALDLCLSLGNESCGLHDN
B2: RBP7: artificial regeneration booster protein, SEQ ID NO: 38 (CDS SEQ ID NO: 26), construct pABM-BdEF1_RBP7 (protein)
chain: MVSKGEEVIKEFSGSTRWNPTAEQLSLLKELYYRNGIRTPSADQIRQISARLSRYGKIEGKNVFYWFQNHKARERQKKRLSTVGCDPALIEMGNVASLEFGTESALESLSSGPSSELREAPTRKFYEKKTVGENSTIINPVEQNCTLSCGTSQEFQYAVDSRRVMKAMEEKQATDDEPDGNKWTESNRHVKTLPLFPLHNNVETLPLFPEDSGSLDLELELGFASGGSAGSVDTLPLFPREAAGSGEFATAAATSGSQRASALDLCLSLGNESCGLHDN
B3: RBP8: artificial regeneration booster protein, SEQ ID NO: 39 (CDS SEQ ID NO: 27), construct pABM-BdEF1_RBP8 (protein)
chain: MVSKGEEVIKEFSGSTRWNPTAEQVKVLREIYYRAGLRTPSADQIRQISSQLKRYGKVEGKNVFYWFQNHKARERQKKRLSTVGSAGSAAGSGEFRHVKTLPLFPLHNNEDSGSGLDLDLNLELRLSATAAATSGSQRASALDLDLELRLGFALGNESCGLHDN
B4: RBP2: artificial regeneration booster protein, SEQ ID NO: 33 (CDS SEQ ID NO: 21), expressed from construct pABM-BdEF1_RBP2 (protein)
chain: MESGSGTAAGSGYVYRQSGSTRWNPTAEQLSLLKELYYRNGIRTPSADQIRQISARLSRYGKIEGKNVFYWFQNHKARERQKKRLSTVGCDPALIEMGNVASLEFGTESALESLSSGPSSELREAPTRKFYEKKTVGENSTIINPVEQNCTLSCGTSQEFQYAVDSRRVMKAMEEKQATDDEPDGNKWTESNRHVKTLPLFPLHNNEDQTLIKSDKEIYCLGSCEKKMDLSPLGHSGSQRASALDLCLSLGNESCGLHDN

How the values were obtained:
Type in all cases: cell-based
[1] = tested on: CRISPR target m7GEP1 (maize HMG13 gene) in corn A188 immature embryos; assay: SDN-1 efficiency after co-delivery of TSA with editing plasmids, target m7GEP1, Taqman ddPCR (Example 18); conditions: 15 ng TSA co-bombarded, 48 hours after bombardment, 6 repeats
Method: (§1) The amounts of TSA used for a bombardment with 100 μg of gold particles (approximately, 4.0-5.0×10^7 gold particles size of 0.6 micron) is 15 ng. Specifically, the plasmid DNA and TSA were co-coated onto gold particles for bombardment as follows. For 10 shots, 100 microlite (μl) of 10 mg/ml 0.6 μm gold particle in 50% (v/v) glycerol particle stock solution (1.0 mg of the gold particles in total for 10 shots, and 100 μg per shot) was pipetted into a clear low-retention microcentrifuge tube. Sonicate for 15 seconds to suspend the gold particles. While vortex at a low speed, add the following in order: • 1.0 μg of pGEP1054 (FIG. 15), 1.5 μg of pGEP842 (FIG. 2) or pGEP1067 (FIG. 32) • 100 μl of 2.5 M CaCl2 (pre-cold on ice) • 40 μl of 0.1 M cold spermidine Close the lid and vortex the tube for 5 minutes at room temperature and spin down the DNA-coated gold particles. After washing in 1000 μl of 100% ethanol (pre-cold at −20° C.) for two times, the pellet was resuspended in 120 μl of 100% ethanol. Finally, 150 ng of TSA was added into the resuspended gold particle solution carefully. While vertexing at a low speed, pipet 10 μl of TSA co-coated gold particles with a wide open 20 μl tip from the tube onto the center of the macrocarrier evenly. Since the particles tend to form clumps at this point, get the gold particles onto the macrocarriers as soon as possible. […]

[2] = tested on: CRISPR target m7GEP22 (maize HMG13 gene) in corn A188 immature embryos; assay: SDN-1 efficiency after co-delivery of TSA with editing plasmids, target m7GEP22, Taqman ddPCR (Example 18); conditions: 15 ng TSA co-bombarded, 48 hours after bombardment, 6 repeats
Method: as §1

[3] = tested on: maize HMG13 gene in maize A188 immature embryos; assay: Genome editing SDN-1 in regenerated T0 plants of maize A188 (Example 5); conditions: for Total SDN-1: T0 events; for Bi-SDN-1: T0 events with bi-allelic SDN-1; for Mon-SDN-1: T0 events with mono-allelic SDN-1; for % SDN-1/IE: per immature embryo initially used; for % SDN-1/Event: per regenerated T0 event; for Total Events: regenerated T0 events, co-bombarded with pGEP837 and pGEP842
Method: Specifically, construct pGEP837 (SEQ ID NO: 52, FIG. 1) and the crRNA construct pGEP842 (SEQ ID NO: 53, FIG. 2) were co-bombarded with the different boosters as indicated into maize A188 immature embryos by particle bombardment. For each bombardment (shot), 100 ng of plasmid pGEP837 were cocoated with 150 ng of plasmid pGEP842 and 100 ng each of different boost constructs onto 100 μg of 0.4 μm gold particles using calcium-spermidine method. Three bombardments (shots) per sample plate were performed.
(§2) After bombardment the embryos were remained on the osmotic medium (N60SM) for another 16-20 hours. The embryos were transferred from the osmotic medium onto embryogenic callus induction medium (e.g. N6_5Ag) in a petri dish plate (100×25 mm) with scutellum-face-up, at a density of 12-15 embryos per plate. The embryos were incubated at 27° C. in dark for the embryogenic callus induction. After embryogenic callus induction in N6_5Ag medium for 10-14 days the induced calluses were transferred onto embryo maturation medium MRM1 in petro dish (100×25 mm), and cultured at 27° C. in dark for 10 days, and then at 25° C., weak light (20-50 μmol m^−2 s^−1) for 2-4 days. The mature somatic embryos were then transferred onto MSO medium (see below) in phytotray for plant outgrowth and further development for 5-7 days. A 5-10 mm leaf tip from each of the leaves of a T0 plant is collected for DNA extraction. The targeted genome editing SDN-1 in the regenerated T0 plants are screened by TaqMan real-time PCR (qPCR), and further conformed by Sanger sequencing trace decomposition analysis.

[4] = tested on: maize HMG13 gene in immature embryos of maize recalcitrant elite 4V-40290; assay: Genome editing SDN-1 in T0 plants of elite 4V-40290 (Example 13); conditions: for Bi-SDN-1 / Mon-SDN-1 / Total SDN-1: T0 events; for % SDN-1/IE: per immature embryo initially used; for % SDN-1/Event: per regenerated T0 event; for Total Event: regenerated T0 events, co-bombarded with pGEP837 and pGEP842
Method: as §2
(§3) The workflow was as described in Example 6. For immature embryo isolation, osmotic treatment, and bombardment, please see the description in Example 1. Specifically, genome editing constructs pGEP837 (SEQ ID NO: 52, FIG. 1) and pGEP842 (SEQ ID NO: 53, FIG. 2) were co-bombarded with the different boosters as indicated into the immature embryos of elite 4V-40290 by particle bombardment. For each bombardment (shot), 100 ng of plasmid pGEP837 and 150 ng of plasmid pGEP842 were cocoated with 100 ng each of different boost constructs onto 100 μg of 0.4 μm gold particles using calcium-spermidine method. Three bombardments (shots) per sample plate were performed. The bombarded embryos were transformed onto the embryogenic callus induction medium 16-20 hours after bombardment.
(§4) For plant regeneration, and genome editing SDN-1 screen and conformation in regenerated T0 plants please see Example 5 and Example 9.

[5] = tested on: maize HMG13 gene in immature embryos of maize recalcitrant elite 2V-20195; assay: Genome editing SDN-1 in T0 plants of elite 2V-20195 (Example 12)
Method: as §2
as §3, with “embryos of maize elite 2V-20195” for “embryos of elite 4V-40290”, “maize elite 2V-20195 by particle” for “of elite 4V-40290 by particle”, “pGEP842 were co-coated with 100” for “pGEP842 were cocoated with 100”
as §4

Row | Molecule | increase in the SDN-1 efficiency compared to the control without TSA (CK) [1] [%] | increase in the SDN-1 efficiency compared to the control without TSA (CK) [2] [%] | Total SDN-1 [3] | Bi-SDN-1 [3] | Mon-SDN-1 [3] | % SDN-1/IE [3] [%] | % SDN-1/Event [3] [%] | Total Events [3] | Bi-SDN-1 [4] | Mon-SDN-1 [4] | Total SDN-1 [4] | % SDN-1/IE [4] [%] | % SDN-1/Event [4] [%] | Total Event [4] | Bi-SDN-1 ([5]; T0 events) | Mon-SDN-1 ([5]; T0 events) | Total SDN-1 ([5]; T0 events) | % SDN-1/IE ([5]; per immature embryo initially used) [%] | % SDN-1/Event ([5]; per regenerated T0 event) [%] | Total Event ([5]; regenerated T0 events, co-bombarded with pGEP837 and pGEP842)
1 | CC(/C=C/C(=O)NO)=C\[C@@H](C)C(=O)c1ccc(N(C)C)cc1 [TSA, trichostatin A] | 61.5 | 354.5 | – | – | – | – | – | – | – | – | – | – | – | – | – | – | – | – | – | –
2 | B1 | – | – | 11 | 8 | 3 | 23.4 | 4.9 | 224 | – | – | – | – | – | – | – | – | – | – | – | –
3 | B2 | – | – | 6 | 5 | 1 | 19.4 | 12.0 | 50 | – | – | – | – | – | – | – | – | – | – | – | –
4 | B3 | – | – | 9 | 5 | 4 | 39.1 | 13.4 | 67 | 1 | 6 | 7 | 28.0 | 20.6 | 34 | – | – | – | – | – | –
5 | B4 | – | – | 34 | 20 | 14 | 22.7 | 14.3 | 237 | 2 | 0 | 2 | 9.1 | 13.3 | 15 | 1 | 0 | 1 | 2.1 | 6.3 | 16
